# Test results from IntAct's records for PubMed 17699623.
# B1: Protein BZR1 homolog 1 (Oryza sativa subsp. japonica (Rice)), Q7XI96 (parent)
# chain: MTSGAAAAGRTPTWKERENNKRRERRRRAIAAKIFTGLRALGNYNLPKHCDNNEVLKALCREAGWVVEDDGTTYRKGCKPPPSSAGGASVGMSPCSSTQLLSAPSSSFPSPVPSYHASPASSSFPSPSRIDNPSASCLLPFLRGLPNLPPLRVSSSAPVTPPLSSPTASRPPKIRKPDWDVDPFRHPFFAVSAPASPTRGRRLEHPDTIPECDESDVSTVDSGRWISFQMATTAPTSPTYNLVNPGASTSNSMEIEGTAGRGGAEFEFDKGRVTPWEGERIHEVAAEELELTLGVGAK
# partner: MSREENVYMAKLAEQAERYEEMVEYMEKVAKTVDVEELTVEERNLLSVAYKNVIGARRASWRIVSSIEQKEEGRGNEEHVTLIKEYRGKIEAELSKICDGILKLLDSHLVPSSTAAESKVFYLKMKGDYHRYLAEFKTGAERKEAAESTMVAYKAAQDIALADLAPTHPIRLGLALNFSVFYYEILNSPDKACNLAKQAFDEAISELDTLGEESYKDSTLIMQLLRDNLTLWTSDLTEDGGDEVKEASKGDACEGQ
# Variants of: B1
# Details: with 14333_orysj GF14C
row,effect of a mutation on the interaction,Variant
1,disrupting interaction,S156G
